The values that follow come from the supplement of paper PMC10567573.

B1: C22orf15 (parent)
chain: PRGRAHLLPNPYQQDFLGLPEELR
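Also: lentivirally expressed fusions sorted by FACS into six bins by GFP to DsRed ratio, PSI derived from sequencing read proportions per bin multiplied by bin number.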

The variants in the series derive from B1. As to the kind of experiment: protein stability index of a GFP-peptide fusion (GPS, HEK-293T) (PSI 1-6); higher = more stable. The following applies: c terminus: a fixed tail appended.
With PRGRAILLPNPYQQDFLGLPEELR [H6I], the protein stability index turned out to be 3.65. PRGRANLLPNPYQQDFLGLPEELR [H6N]: the protein stability index is 4.26. As for PRGRATLLPNPYQQDFLGLPEELR [H6T], the protein stability index was determined as 3.87.

Regarding PRGRAPLLPNPYQQDFLGLPEELR [H6P], the protein stability index turned out to be 3.93.

Take PRGRASLLPNPYQQDFLGLPEELR [H6S]: the protein stability index is 3.81.

Take PRGRAGLLPNPYQQDFLGLPEELR [H6G]: the protein stability index is 4.26. Turning to PRGRAFLLPNPYQQDFLGLPEELR [H6F], the protein stability index is 2.99. For PRGRAMLLPNPYQQDFLGLPEELR [H6M], the protein stability index is 4.04. Turning to PRGRALLLPNPYQQDFLGLPEELR [H6L], the protein stability index was determined as 3.44.

As to PRGRADLLPNPYQQDFLGLPEELR [H6D], the protein stability index was 4.4. On to PRGRAWLLPNPYQQDFLGLPEELR [H6W], for which the protein stability index was found to be 2.85.

For the variant PRGRAYLLPNPYQQDFLGLPEELR [H6Y], the protein stability index came out at 3.02. Take PRGRAELLPNPYQQDFLGLPEELR [H6E]: the protein stability index amounted to 4.58.

For the variant PRGRAVLLPNPYQQDFLGLPEELR [H6V], the protein stability index was 3.54.

For PRGRARLLPNPYQQDFLGLPEELR [H6R], the protein stability index came out at 3.71. The same measure for PRGRAQLLPNPYQQDFLGLPEELR [H6Q]: 3.75; for PRGRACLLPNPYQQDFLGLPEELR [H6C]: 3.68; for PRGRAALLPNPYQQDFLGLPEELR [H6A]: 3.57. As to PRGRAKLLPNPYQQDFLGLPEELR [H6K], the protein stability index is 3.87. For the variant PRGRAHQLPNPYQQDFLGLPEELR [L7Q], the protein stability index worked out at 3.86. With PRGRAHILPNPYQQDFLGLPEELR [L7I], the protein stability index came out at 3.8. As for PRGRAHKLPNPYQQDFLGLPEELR [L7K], the protein stability index came out at 4.

Turning to PRGRAHTLPNPYQQDFLGLPEELR [L7T], the protein stability index was found to be 5.36.

Regarding PRGRAHNLPNPYQQDFLGLPEELR [L7N], the protein stability index came out at 4.33. In the case of PRGRAHMLPNPYQQDFLGLPEELR [L7M] it was 4.18; in that of PRGRAHGLPNPYQQDFLGLPEELR [L7G], 4.08. Consider PRGRAHELPNPYQQDFLGLPEELR [L7E], for which the protein stability index turned out to be 4.62.

PRGRAHRLPNPYQQDFLGLPEELR [L7R]: the protein stability index amounted to 4.12. Take PRGRAHFLPNPYQQDFLGLPEELR [L7F]: the protein stability index amounted to 3.84. Consider PRGRAHSLPNPYQQDFLGLPEELR [L7S], for which the protein stability index was determined as 4.98. As for PRGRAHDLPNPYQQDFLGLPEELR [L7D], the protein stability index is 3.96. Take PRGRAHCLPNPYQQDFLGLPEELR [L7C]: the protein stability index was 3.84.

Turning to PRGRAHHLPNPYQQDFLGLPEELR [L7H], the protein stability index worked out at 3.9. In the case of PRGRAHPLPNPYQQDFLGLPEELR [L7P] it was 4.06; in that of PRGRAHALPNPYQQDFLGLPEELR [L7A], 4.23; in that of PRHRAHLLPNPYQQDFLGLPEELR [G3H], 3.79. Take PRCRAHLLPNPYQQDFLGLPEELR [G3C]: the protein stability index amounted to 3.15. As for PRKRAHLLPNPYQQDFLGLPEELR [G3K], the protein stability index worked out at 3.16. Consider PRLRAHLLPNPYQQDFLGLPEELR [G3L], for which the protein stability index was 3.51.

Take PRTRAHLLPNPYQQDFLGLPEELR [G3T]: the protein stability index turned out to be 2.66.

For PRNRAHLLPNPYQQDFLGLPEELR [G3N], the protein stability index worked out at 3.61. On to PRDRAHLLPNPYQQDFLGLPEELR [G3D], for which the protein stability index amounted to 4.03. For PRPRAHLLPNPYQQDFLGLPEELR [G3P], the protein stability index came out at 3.77.

Regarding PRQRAHLLPNPYQQDFLGLPEELR [G3Q], the protein stability index was 3.45. With PRERAHLLPNPYQQDFLGLPEELR [G3E], the protein stability index came out at 3.82. The same measure for PRYRAHLLPNPYQQDFLGLPEELR [G3Y]: 3.72; for PRFRAHLLPNPYQQDFLGLPEELR [G3F]: 3.79. For PRARAHLLPNPYQQDFLGLPEELR [G3A], the protein stability index was determined as 4.32.

In the case of PRRRAHLLPNPYQQDFLGLPEELR [G3R], the protein stability index was determined as 3.52. PRVRAHLLPNPYQQDFLGLPEELR [G3V]: the protein stability index came out at 3.93. On to PRMRAHLLPNPYQQDFLGLPEELR [G3M], for which the protein stability index turned out to be 2.7. For the variant PRWRAHLLPNPYQQDFLGLPEELR [G3W], the protein stability index turned out to be 3.27. Regarding PRSRAHLLPNPYQQDFLGLPEELR [G3S], the protein stability index was found to be 3.52.

PRIRAHLLPNPYQQDFLGLPEELR [G3I]: the protein stability index was found to be 3.83.

For the variant PWGRAHLLPNPYQQDFLGLPEELR [R2W], the protein stability index was 3.33.

For PYGRAHLLPNPYQQDFLGLPEELR [R2Y], the protein stability index was found to be 3.5. Take PRGRVHLLPNPYQQDFLGLPEELR [A5V]: the protein stability index worked out at 3.63. Regarding PRGREHLLPNPYQQDFLGLPEELR [A5E], the protein stability index was 3.9. PRGRLHLLPNPYQQDFLGLPEELR [A5L]: the protein stability index was found to be 3.12. For the variant PRGRFHLLPNPYQQDFLGLPEELR [A5F], the protein stability index turned out to be 2.69. Turning to PRGRYHLLPNPYQQDFLGLPEELR [A5Y], the protein stability index is 2.98.

As for PRGRIHLLPNPYQQDFLGLPEELR [A5I], the protein stability index worked out at 2.96. For PRGRCHLLPNPYQQDFLGLPEELR [A5C], the protein stability index came out at 2.69.

PRGRGHLLPNPYQQDFLGLPEELR [A5G]: the protein stability index is 3.63. As to PRGRKHLLPNPYQQDFLGLPEELR [A5K], the protein stability index was 3.32. The same measure for PRGRTHLLPNPYQQDFLGLPEELR [A5T]: 4.05; for PRGRNHLLPNPYQQDFLGLPEELR [A5N]: 4.1; for PRGRHHLLPNPYQQDFLGLPEELR [A5H]: 3.78. Regarding PRGRQHLLPNPYQQDFLGLPEELR [A5Q], the protein stability index is 4.07. Take PRGRMHLLPNPYQQDFLGLPEELR [A5M]: the protein stability index was 3.48.

Take PRGRPHLLPNPYQQDFLGLPEELR [A5P]: the protein stability index amounted to 3.56.

As for PRGRDHLLPNPYQQDFLGLPEELR [A5D], the protein stability index amounted to 4.25. In the case of PRGRRHLLPNPYQQDFLGLPEELR [A5R] it was 3.34; in that of PRGRWHLLPNPYQQDFLGLPEELR [A5W], 2.62; in that of PRGRSHLLPNPYQQDFLGLPEELR [A5S], 4.04. In the case of PRGHAHLLPNPYQQDFLGLPEELR [R4H] it was 4.06; in that of PRGNAHLLPNPYQQDFLGLPEELR [R4N], 3.99; in that of PRGPAHLLPNPYQQDFLGLPEELR [R4P], 3.92. Turning to PRGCAHLLPNPYQQDFLGLPEELR [R4C], the protein stability index turned out to be 2.85. For PRGGAHLLPNPYQQDFLGLPEELR [R4G], the protein stability index was determined as 4.27. As to PRGFAHLLPNPYQQDFLGLPEELR [R4F], the protein stability index turned out to be 3.77. As to PRGMAHLLPNPYQQDFLGLPEELR [R4M], the protein stability index was 3.42. PRGKAHLLPNPYQQDFLGLPEELR [R4K]: the protein stability index is 3.36. For PRGIAHLLPNPYQQDFLGLPEELR [R4I], the protein stability index is 3.24. For PRGTAHLLPNPYQQDFLGLPEELR [R4T], the protein stability index was found to be 3.68. As to PRGLAHLLPNPYQQDFLGLPEELR [R4L], the protein stability index came out at 3.59. Regarding PRGYAHLLPNPYQQDFLGLPEELR [R4Y], the protein stability index is 3.57. On to PRGQAHLLPNPYQQDFLGLPEELR [R4Q], for which the protein stability index was determined as 3.73. On to PRGEAHLLPNPYQQDFLGLPEELR [R4E], for which the protein stability index was 3.96. With PRGSAHLLPNPYQQDFLGLPEELR [R4S], the protein stability index came to 3.81.

Consider PRGWAHLLPNPYQQDFLGLPEELR [R4W], for which the protein stability index was found to be 2.96.

Take PRGDAHLLPNPYQQDFLGLPEELR [R4D]: the protein stability index stood at 4.25.

With PRGAAHLLPNPYQQDFLGLPEELR [R4A], the protein stability index came out at 4.23. The same measure for PRGVAHLLPNPYQQDFLGLPEELR [R4V]: 3.86.
